Measurements from US20240190939A1.
One block for each substance: values may come before it.

Legend:
CD47-His = assay: ELISA: hCD47 His capture, IgG HRP detection
CD155PVR-His [1] = assay: ELISA: 'CD115/PVR Capture' as printed (legend: CD155PVR-His), Fc-HRP detection
recombinant CD155 = assay: ELISA: CD155/PVR capture, Fc-HRP detection
CD155PVR-His [2] = assay: ELISA: CD155-His capture, IgG detection
[3] = target: mouse LTbR on CHO-K1 cells (mouse) (UniProt P50284); assay: flow cytometry on CHO-K1 cells expressing murine LTbR (the sentence names the second value 'for mCD172a(SIRPα)')
Chain of mouse LTbR on CHO-K1 cells (mouse) (P50284 31-415): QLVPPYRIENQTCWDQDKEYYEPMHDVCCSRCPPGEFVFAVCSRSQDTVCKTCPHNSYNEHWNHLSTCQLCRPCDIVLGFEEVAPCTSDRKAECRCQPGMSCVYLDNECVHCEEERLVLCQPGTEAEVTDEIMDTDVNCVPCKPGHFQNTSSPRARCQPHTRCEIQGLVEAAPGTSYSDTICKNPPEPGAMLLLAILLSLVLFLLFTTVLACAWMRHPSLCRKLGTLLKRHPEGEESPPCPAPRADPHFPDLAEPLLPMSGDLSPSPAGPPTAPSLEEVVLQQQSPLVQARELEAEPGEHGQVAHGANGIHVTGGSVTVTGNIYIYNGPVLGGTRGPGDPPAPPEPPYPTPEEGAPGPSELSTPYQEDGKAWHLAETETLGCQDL

[4] = target: mouse LTbR on CHO-K1 cells (mouse) (UniProt P50284); assay: flow cytometry on CHO-K1 cells expressing murine LTbR

Chain of CD47-His (Q61735 19-140): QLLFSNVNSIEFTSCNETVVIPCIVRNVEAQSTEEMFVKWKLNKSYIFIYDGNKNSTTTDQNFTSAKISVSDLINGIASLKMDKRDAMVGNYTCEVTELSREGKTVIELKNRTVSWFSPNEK

- EC50 (read off the curve) (CD47-His): 0.3 nM
Substance: SIRPa-Fc Std (Fc fusion)

- EC50 (read off the curve) (CD155PVR-His [2]): 0.07 nM
Substance: TIGIT-Fc Std (Fc fusion)

The remaining lines, values behind:

Substance: TIGIT Std (receptor)
- EC50 (read off the curve) (CD155PVR-His [1]): 10 nM
- EC50 (read off the curve) (recombinant CD155): 10 nM

Substance: murine CD172a(SIRPα)-Fc-LIGHT chimeric protein (from UniProt P97797 32-373) (Fc fusion)
- EC50 [3]: 24 nM

Substance: murine TIGIT-Fc-LIGHT chimeric protein (from UniProt P86176 29-148) (Fc fusion)
- EC50 [4]: 11 nM
